Assay results as given in patent US20190336589A1 (published 2019).
Blank lines part the entries; values can stand above or below the binder they belong to.

How the values were obtained:
[1] = target: Hen egg lysozyme (HEL) peptide on I-A^k (mouse); test: binding, other
Target sequence in this assay (peptide, as listed by the source): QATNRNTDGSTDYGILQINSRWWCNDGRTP

[2] = target: T1, Hen egg lysozyme (HEL) peptide on I-A^k (mouse); test: binding, other
T1 peptide: DGSTDYGILQINSR

[3] = target: T2, PLP (myelin proteolipid protein) peptide on I-A^s (mouse, 3rd amino acid from the N terminus substituted from cysteine to serine; contains the serine-substituted epitope of SEQ ID NO: 20); test: activation reporter or marker
T2 peptide: RVSHSLGKWLGHPDKF
Experimental: The cultured cells were collected, and the 2E5 reporter T cells were stained with an APC-labeled anti-CD45 antibody (clone name: 30-F11, eBioscience). Then, the stained 2E5 reporter cells were analyzed by flow cytometry so as to determine the proportion of the GFP-positive cells in the CD45-positive cells. As Control 1, the proportion of the GFP-positive cells in the CD45-positive cells was analyzed in the same manner, except that the above-described medium was added instead of the IgG antibody.

binding result [1]: recognises | binding result [2]: recognises
B1: 3A9 TCR (TCR, V domains shown)
Valpha: AQSVTQPDARVTVSEGASLQLRCKYSYSGTPYLFWYVQYPRQGLQLLLKYYSGDPVVQGVNGFEAEFSKSNSSFHLRKASVHWSDSAVYFCALNSGGSNAKLAFGKGSKLSVKS
Vbeta: AVTQSPRNKVAVTGGKVTLSCNQTNNHNNMYWYRQDTGHGLRLIHYSYGAGSTEKGDIPDGYKASRPSQENFSLILELATPSQTSVYFCASGDESALPELYFGEGSKLTVL

binding result [3]: recognises
B2: 2E5 TCR (TCR, V domains shown)
Valpha: GEKVEQHQSTLSVREGDSAVINCTYTDTASSYFPWYKQEAGKSLHFVIDIRSNVDRKQSQRLTVLLDKKAKRFSLHITATQPEDSAIYFCAASPGANTGKLTFGHGTILRVHP
Vbeta: VAGVTQTPRYLVKEEGQKAHMSCSPEKGHTAFYWYQQNQKQELTFLINFRNEEIMEQTDLVKKRFSAKCSSNSQCILEILSSEEDDSALYLCASSLVRGNSDYTFGSGTRLLVI
